{"source": "patent US20110217318A1", "about": "(MOCHIDA PHARMACEUTICAL, published 2011)", "binders": {"B1": {"name": "F1251-1-1 (antibody, V domains shown)", "VH": "QVNLLQSGAALVKPGASVKLSCKASGYTFTDYYIHWVKQSHGKSLEWIGYINPNSGYTNYNEKFKSKATLTVDKSTNTAYMELSRLTSEDSATYYCTRCNSGYGDWFAYWGQGTLLTVSS", "VL": "DIQMTQSPPVLSASVGDRVTLSCKASQNINKNLDWYQQKHGEAPKLLIYYTNNLQTDIPSRFSGSGSGTDYTLTISSLQPEDVATFYCYQYNSGPGTFGAGTKLELKR", "notes": "rat hybridoma monoclonal antibody"}, "B2": {"name": "humanized F1232-37-2: Eu-HC with REI-KA (antibody, human IgG4, V domains shown)", "VH": "QVQLVQSGAEVKKPGSSVKVSCKASGGTFSDYAIHWVRQAPGQGLEWIGVISIYYDDTNYNQKFKGKATITADESTNTAYMELSSLRSEDTAIYYCARRRDSSGPYAMDYWGQGTLVTVSS", "VL": "DIQMTQSPSSLSASVGDRVTITCRASESVDSYGNSFMHWYQQKPGKAPKLLIYRASNLESGVPSRFSGSGSGTDFTFTISSLQPEDIATYYCQQSNEDPYTFGQGTKVEIKR", "notes": "human IgG4 heavy and kappa light constant regions"}, "B3": {"name": "humanized F1232-37-2: Eu-HC with Eu-KA (antibody, human IgG4, V domains shown)", "VH": "B2 VH", "VL": "B2 VL with S10T, I52M, S67I, D74E, F77L, E85D, I87F, I110V", "notes": "as for B2"}, "B4": {"name": "F1249-22-1 (antibody, V domains shown)", "VH": "QVQLQQPGAELVKPGASVKLSCKASGYTFTSYWMQWVKERPGQGLEWIGEIDPSDSYTNYNQKFKGKATLTVDTSSSTACMQLSSLTSEDSAVYYCARGAITTATLDYWGQGTTLTVSS", "VL": "not shown", "notes": "mouse hybridoma monoclonal antibody"}, "B5": {"name": "F1246-1-1 (antibody, V domains shown)", "VH": "EVQLVESGGDLVKPGGSLKLSCAASGFTFSSYGMSWVRQTPDKRLEWVATISNGGTYTYYPDSVKGRFTISRDNAKNTLYLQMSSLKSDDTAMYYCGRLRDYYAMDYWGQGTSVTVSS", "VL": "DIVLTQSPASLAVSLGQRATISCRASESVDSYGNSFMHWYQQKPGQPPKLLIYRASNLESGIPARFSGSGSRTDFTLTINPVEADDVATYYCQQSNEDPWTFGGGTKLEIKR", "notes": "as for B4"}, "B6": {"name": "F1249-3-2 (antibody, V domains shown)", "VH": "EVQLVESGGGLVKPGGSLKLSCAASGFTFSSYGMSWVRQTPDKRLEWVATISSGGSYTYYSDSVKGRFTISRDNAKNNLYLQLSSLKSQDTAIYYCARDSGYFDYWGQGTTLTVSS", "VL": "B5 VL with D1N, R54L, I62V, N80D, V87A, S95N, W100R", "notes": "as for B4"}, "B7": {"name": "F1249-20-1 (antibody, V domains shown)", "VH": "QVQLQQSGAELVRPGVSVKISCKGSGYTFTDYAMHWVKQSHAKSLEWIGVISTYYGDTSYNQKFKGKATMTVDKSSSTAYMELARLTSEDSAIYYCARAEDYDPWFAYWGQGTLVTVSA", "VL": "B5 VL with H38Y, N96D, W100L, G104A, I110L", "notes": "as for B4"}, "B8": {"name": "F1249-24-1 (antibody, V domains shown)", "VH": "B7 VH", "VL": "B5 VL with N96D, W100L, G104A, I110L", "notes": "as for B4"}, "B9": {"name": "F1249-30-1 (antibody, V domains shown)", "VH": "B7 VH with T69A, E89D", "VL": "B5 VL with N96D, W100L, G104A, I110L", "notes": "as for B4"}, "B10": {"name": "F1249-18-2 (antibody, V domains shown)", "VH": "QVQLQQPGAELVKPGASVKLSCKASGYTFTSYWMHWLKQRPGQGLEWIGMIHPNSDITNYNEKFKNKATLTVDKSSSTAYMQLSSLTSEDSAVYYCARSGDYYAMDYWGQGTSVTVSS", "VL": "SIVMTQTPKFLLVSAGDRVTITCKASQSVSNDVAWYQQKPGQSPKLLIYYASNRYTGVPDRFTGSGYGTDFTFTISTVQAEDLAVYFCQQDYSSPPTFGGGTKLEIKR", "notes": "as for B4"}, "B11": {"name": "F1245-6-2 (antibody, V domains shown)", "VH": "QVQLQQPGAELVKPGASVKLSCKASGYTFTSYWMHWVKQRPGQGLEWIGMIHPNSGSTNYNEKFKSKATLTVDKSSSTAYMQLSSLTSEDSAVYYCARGGVTPVAYWGQGTLVTVSA", "VL": "B10 VL with D60Y, P96W", "notes": "as for B4"}, "B12": {"name": "F1245-4-1 (antibody, V domains shown)", "VH": "QVQLQQPGAELVKPGASVKLSCKASGCTFTSYWMHWVKQRPGQGLEWIGMIHPNSDNTNYNEKFKSKATLTVDKSSSTAYMHLSSLTSEDSAVYYCATHYYDYVDYWGQGTTLTVSS", "VL": "B10 VL with S1N, P96W", "notes": "as for B4"}, "B13": {"name": "F1245-5-1 (antibody, V domains shown)", "VH": "B11 VH with T30I, N59H", "VL": "B10 VL with P96W", "notes": "as for B4"}, "B14": {"name": "F1249-5-1 (antibody, V domains shown)", "VH": "B10 VH with D73A, S99L", "VL": "B10 VL with A34T", "notes": "as for B4"}, "B15": {"name": "F1232-37-2 F(ab')2 (other)", "VH": "VQLQQSGPELVRPGESVKISCKGSGYTFTDYAIHWVKLSHAKSLEWIGVISIYYDDTNYNQKFKGKATMTVDKSSSTAYLELARLTSEDSAIYYCARRRDSSGPYAMDYWGQGTSVTVSS", "VL": "DIVLTQSPASLAVSLGQRATISCRASESVDSYGNSFMHWYQQKPGQPPKLLIYRASNLESGIPARFSGSGSRTDFTLTINPVEADDVATYYCQQSNEDPYTFGGGTKLEIKRADAA", "notes": "F(ab')2 made from the mouse antibody with lysyl endopeptidase"}, "B16": {"name": "F1232-37-2 Fab (Fab, V domains shown)", "VH": "B15 VH", "VL": "B5 VL with W100Y", "notes": "Fab made from the mouse antibody with papain"}, "B17": {"name": "F1245-7-1 (antibody, V domains shown)", "VH": "QVQLQQPGAELVKPGASVKLSCKASGYTFTSYWMHWVKQRPGQGLEWIGMIHPNSGSTNYNEKFKSKATLTVDKSSSTAYMQLSSLTSEDSAVYYCASPVTAVVEYYFDYWGQGTTLTVSS", "VL": "SIVMTQTPKFLLVSAGDRVTITCKASQSVSNDVAWYQQKPGQSPKLLIYYASNRYTGVPDRFTGSGYGTDFTFTISTVQAEDLAVYFCQQDYSSLTFGSGTKLEIKR", "notes": "as for B4"}, "B18": {"name": "F1257-3-1 (antibody, V domains shown)", "VH": "QVTLKESGPGMLQPSKTLSLTCSFSGFSLSTSGMVVSWIRQPSGKSLEWLAAIDWDGDKYYNPSLKSRLTVSKDTSNTQVFLKISSVDIADTATYYCARTPYYGYKEAYYFDYWGQGVKVTVSS", "VL": "DIQMTQSPASLSASLEEIVTITCKASRAIDDYLSWYQQKPGKSPQLLIYDATSLADGVPSRFSGSRSGTQYSLKISRPQVDDSGIYYCLQSYSTPWTFGGGTKLDLKR", "notes": "as for B1"}}, "key": {"[1]": {"molecular_target": "T1, human GPVI extracellular region-human Fc fusion protein (hGPVI-hFc) (human)", "T1 construct": "Expressed in COS-1, purified on Protein A; also called GPVI-HHH-hFc; hGPVIHHH-hFc", "T1 sequence (chain, as listed by the source limits assumed)": "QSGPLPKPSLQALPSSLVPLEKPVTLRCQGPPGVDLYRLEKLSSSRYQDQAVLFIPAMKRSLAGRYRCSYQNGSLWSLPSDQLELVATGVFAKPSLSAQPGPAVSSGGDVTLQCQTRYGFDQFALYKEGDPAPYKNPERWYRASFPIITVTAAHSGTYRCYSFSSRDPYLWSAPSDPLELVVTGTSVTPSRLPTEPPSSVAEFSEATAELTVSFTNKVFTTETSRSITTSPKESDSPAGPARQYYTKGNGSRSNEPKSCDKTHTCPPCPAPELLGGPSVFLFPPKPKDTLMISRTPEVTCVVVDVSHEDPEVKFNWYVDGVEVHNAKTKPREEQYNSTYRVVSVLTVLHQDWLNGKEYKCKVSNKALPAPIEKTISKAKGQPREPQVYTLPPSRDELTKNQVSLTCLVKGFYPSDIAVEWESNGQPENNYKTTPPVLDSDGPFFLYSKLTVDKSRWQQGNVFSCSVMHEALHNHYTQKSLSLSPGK", "experiment": "SPR BIACORE 3000 as in Example 5"}, "[2]": {"molecular_target": "T1, human GPVI extracellular region-human …", "experiment": "binding to antigen of co-expressed chains; antigen construct not named"}, "[3]": {"molecular_target": "T1, human GPVI extracellular region-human …", "experiment": "SPR BIACORE 3000, hGPVI-hFc on CM5 chip, 0-800 nM, bivalent analyte fit", "method": "(§1) Dissociation constant for F1232-37-2 (whole antibody) prepared in EXAMPLE 2, and F(ab′)2 and Fab prepared in 22-1 and 21-2 was measured with Protein Interaction Analyzer BIACORE® 3000 (BIACORE). That is, hGPVI-hFc prepared in EXAMPLE 1 was coupled to sensorchip CM5 (BIACORE) according to the manual. Then a series of dilution from 0 to 800 nM of each antibody was prepared with HBS-EP buffer (BIACORE) and analyzed with BIACORE® 3000. After completion of antibody binding, chip was regenerated with glycine buffer (pH 1.5) (BIACORE). Regarding the results of whole antibody and F(ab′)₂, evaluation software Bivalent analyte (BIACORE) was used for analysis; 1:1 Binding for Fab analysis. Then the dissociation constant was calculated. As a result, dissociation constant of F1232-37-2 F(ab′)2 and Fab was about 0.7 and 0.6, respectively, when that of whole antibody defined as one."}, "[4]": {"molecular_target": "T1, human GPVI extracellular region-human …", "experiment": "SPR BIACORE 3000, hGPVI-hFc on CM5 chip, 0-800 nM, 1:1 binding fit", "method": "as §1"}}, "note": "Residue numbers refer to the chain shown, from its start."}
{"binder": "B1", "values": [{"measurement": "KD (Relative value)", "setting": "[1]", "value": "7.9 relative to F1232-37-2 = 1"}]}
{"binder": "B2", "values": [{"measurement": "binding result", "setting": "[2]", "value": "binds"}]}
{"binder": "B3", "values": [{"measurement": "binding result", "setting": "[2]", "value": "binds"}]}
{"binder": "B4", "values": [{"measurement": "KD (Relative value)", "setting": "[1]", "value": "2.06 relative to F1232-37-2 = 1"}]}
{"binder": "B5", "values": [{"measurement": "KD (Relative value)", "setting": "[1]", "value": "0.884 relative to F1232-37-2 = 1"}]}
{"binder": "B6", "values": [{"measurement": "KD (Relative value)", "setting": "[1]", "value": "1.59 relative to F1232-37-2 = 1"}]}
{"binder": "B7", "values": [{"measurement": "KD (Relative value)", "setting": "[1]", "value": "0.00205 relative to F1232-37-2 = 1"}]}
{"binder": "B8", "values": [{"measurement": "KD (Relative value)", "setting": "[1]", "value": "0.00821 relative to F1232-37-2 = 1"}]}
{"binder": "B9", "values": [{"measurement": "KD (Relative value)", "setting": "[1]", "value": "0.347 relative to F1232-37-2 = 1"}]}
{"binder": "B10", "values": [{"measurement": "KD (Relative value)", "setting": "[1]", "value": "0.00103 relative to F1232-37-2 = 1"}]}
{"binder": "B11", "values": [{"measurement": "KD (Relative value)", "setting": "[1]", "value": "0.122 relative to F1232-37-2 = 1"}]}
{"binder": "B12", "values": [{"measurement": "KD (Relative value)", "setting": "[1]", "value": "0.00427 relative to F1232-37-2 = 1"}]}
{"binder": "B13", "values": [{"measurement": "KD (Relative value)", "setting": "[1]", "value": "1.43 relative to F1232-37-2 = 1"}]}
{"binder": "B14", "values": [{"measurement": "KD (Relative value)", "setting": "[1]", "value": "0.00285 relative to F1232-37-2 = 1"}]}
{"binder": "B15", "values": [{"measurement": "dissociation constant relative to whole antibody", "setting": "[3]", "value": "~0.7 relative to whole F1232-37-2 = 1"}]}
{"binder": "B16", "values": [{"measurement": "dissociation constant relative to whole antibody", "setting": "[4]", "value": "~0.6 relative to whole F1232-37-2 = 1"}]}
{"binder": "B17", "values": [{"measurement": "KD (Relative value)", "setting": "[1]", "value": "0.00293 relative to F1232-37-2 = 1"}]}
{"binder": "B18", "values": [{"measurement": "KD (Relative value)", "setting": "[1]", "value": "0.00298 relative to F1232-37-2 = 1"}]}
